The values below come from article doi:10.1101/2024.09.06.611148.

Usually Kd stands for a measure of binding affinity in units of concentration.

The target of this assay is Alexa-647 NHS-labelled tubulin (UniProt P02550). The experiment in a line: MST.
Sequence of Alexa-647 NHS-labelled tubulin (P02550 whole entry, looked up): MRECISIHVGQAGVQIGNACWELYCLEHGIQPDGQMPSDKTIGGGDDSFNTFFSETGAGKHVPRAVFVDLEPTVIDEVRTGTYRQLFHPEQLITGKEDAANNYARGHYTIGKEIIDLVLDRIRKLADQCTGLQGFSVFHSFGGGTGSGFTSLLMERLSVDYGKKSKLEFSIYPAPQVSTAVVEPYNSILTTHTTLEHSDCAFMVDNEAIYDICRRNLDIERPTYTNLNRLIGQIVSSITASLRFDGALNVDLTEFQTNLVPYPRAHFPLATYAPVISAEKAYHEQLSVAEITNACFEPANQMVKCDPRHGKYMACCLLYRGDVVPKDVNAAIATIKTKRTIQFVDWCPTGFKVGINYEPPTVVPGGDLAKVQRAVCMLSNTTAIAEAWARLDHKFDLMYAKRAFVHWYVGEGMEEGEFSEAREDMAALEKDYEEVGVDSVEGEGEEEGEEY

“recombinant HYC2 (GST-HYC2 or HYC2-6XHis) (from UniProt Q9FMI8 1-448) (natural protein)”: the Kd was 690 nM. This counts as sub-micromolar.
